The assay has as its target Mature human IGF-II (insulin-like growth factor II) (human). Kind of assay: ELISA. Background: In an ELISA, binding on a coated surface is turned into a signal by an enzyme label.

B1: Fab m610.27 (Fab, V domains shown)
VH: QVQLVQSGAEVKKPGASVKVSCKASGYTFTSYYMHWVRQAPGQGLEWMGIINPSGGSTSYAQKFQGRVTMTRDTSTSTVYMELSRLRSDDTAVYYCARDVQWLAYGMDVWGQGTTVTVSS
VL: DIQMTQSPSSLSASVGDRVTITCRASQSISSYLNWYQQKPGRAPDLLINAASSLQSGVPSRFSGSGSGTDFTLTISSLQPEDFATYFCQQSYSLPFTFGGGTKVEIK
As a reminder, the EC50 is the midpoint of the concentration-response curve. On to B1, for which the EC50 was found to be 5 nM.

B2: m610 (human mAb to IGF-II), Fab (Fab, V domains shown)
VH: B1 VH
VL: not shown
On to B2, for which the EC50 is 20 nM.
